Consider one molecule from patent US20250376536A1 (Bristol-Myers Squibb, published 2025).

One assay has as its target FcγRIIIA (CD16a) (UniProt P08637 17-208, limits assumed). The assay can be described thus: SPR, Biacore S200, antibody captured on Protein A chip, FcγR as analyte. On the procedure:
(§1) Binding of CD40.9H3×FAP.LP62 and the analog of RO7300490 to various Fc gamma receptors (FcγR1 (CD64), FcγRIIIA (CD16a), FcγRIIIB (CD16b), FcγRIIA (CD32a), FcγRIIB (CD32b)) was determined in an analyte/capture assay in vitro. Briefly, an SPR assay was performed using a Biacore S200 with a Biacore Series S Protein A chip (Cytiva). All antibodies were prepared at 4.0 μg/ml in 1×HBS-EP+ running buffer (Cytiva) and captured onto flow cells 2, 3, and 4 through a 60 second contact time at 10 μl/min. An analyte series of the FcγRs (BMS In-House Produced) were prepared at 10,000 nM in 1×HBS-EP+ with eight, three-fold dilutions. Kinetic measurements were conducted with a 120 second association followed by a 120 second dissociation at 30 μl/min. Surface regeneration was preformed by 60 second contact time of 50 mM Glycine pH 1.5 solution (Cytiva) at 30 μl/min. Data was processed in Biacore Insight Evaluation Version 5 (Cytiva). Sensorgrams were double referenced and globally fit to a 1:1 Langmuir model were applicable. Where 1:1 model was not sufficient to describe the interaction (fast-on and fast-off rates), steady state equilibrium fitting was used to determine the equilibrium constant.

For another assay, the target named is FcγRIIIB (CD16b) (UniProt O75015 17-200, limits assumed). The assay is described as above. On the procedure: as §1
Chain of FcγRIIIB (CD16b) (O75015 17-200 limits assumed): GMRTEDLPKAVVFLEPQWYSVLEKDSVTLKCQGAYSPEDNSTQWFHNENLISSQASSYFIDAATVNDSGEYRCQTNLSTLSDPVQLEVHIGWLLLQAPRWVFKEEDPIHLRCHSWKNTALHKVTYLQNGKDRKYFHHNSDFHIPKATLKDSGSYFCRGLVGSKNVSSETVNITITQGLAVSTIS

Chain of FcγRIIIA (CD16a) (P08637 17-208 limits assumed): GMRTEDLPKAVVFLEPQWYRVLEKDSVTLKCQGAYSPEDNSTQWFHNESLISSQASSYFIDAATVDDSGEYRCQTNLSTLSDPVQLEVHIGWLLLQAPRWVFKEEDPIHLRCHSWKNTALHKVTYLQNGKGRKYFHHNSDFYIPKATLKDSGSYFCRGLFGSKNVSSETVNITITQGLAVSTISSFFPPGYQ

B1: CD40.9H3×FAP.LP62 bispecific antibody (bispecific antibody, human IgG1, kappa, L234A L235A)
heavy 1: EVQLVESGGGLVQPGGSLRLSCAASGFTFIGYSMNWVRQAPGKGLEWVSYISSYESTIYYADSVKGRFTISRDNAKNSLYLQMNSLRAEDTAVYYCARSRITLVRGVPRYFDLWGRGTLVTVSSASTKGPSVFPLAPSSKSTSGGTAALGCLVKDYFPEPVTVSWNSGALTSGVHTFPAVLQSSGLYSLSSVVTVPSSSLGTQTYICNVNHKPSNTKVDKKVEPKSCDKTHTCPPCPAPEAAGGPSVFLFPPKPKDTLMISRTPEVTCVVVSVSHEDPEVKFNWYVDGVEVHNAKTKPREEQYNSTYRVVSVLTVLHQDWLNGKEYKCKVSNKALPAPIEKTISKAKGQPREPQVYVLPPSREEMTKNQVSLLCLVKGFYPSDIAVEWESNGQPENNYLTWPPVLDSDGSFFLYSKLTVDKSRWQQGNVFSCSVMHEALHNHYTQKSLSLSPG
heavy 2: EVQLVESGGGLVQPGGSLRLSCAASGFTFIGYSMNWVRQAPGKGLEWVSYISSYESTIYYADSVKGRFTISRDNAKNSLYLQMNSLRAEDTAVYYCARSRITLVRGVPRYFDLWGRGTLVTVSSASTKGPSVFPLAPSSKSTSGGTAALGCLVKDYFPEPVTVSWNSGALTSGVHTFPAVLQSSGLYSLSSVVTVPSSSLGTQTYICNVNHKPSNTKVDKKVEPKSCDKTHTCPPCPAPEAAGGPSVFLFPPKPKDTLMISRTPEVTCVVVSVSHEDPEVKFNWYVDGVEVHNAKTKPREEQYNSTYRVVSVLTVLHQDWLNGKEYKCKVSNKALPAPIEKTISKAKGQPREPQVYVYPPSREEMTKNQVSLTCLVKGFYPSDIAVEWESNGQPENNYKTTPPVLDSDGSFALVSKLTVDKSRWQQGNVFSCSVMHEALHNHYTQKSLSLSPGGGSGGGGSGGGGSGGGGSEVQLLESGGGLVQPGGSLRLSCAASGFTFSSRGMSWVRQAPGKCLEWVSFISSSGTYVYYADSVKGRFTISRDNSKNTLYLQMNSLRAEDTAVYYCARDLPRTGVYFGMDVWGQGTTVTVSSGGGGSGGGGSGGGGSGGGGSDIQMTQSPSSLSASVGDRVTITCRASQSIFNYLNWYQQKPGKAPKLLIYGASTLQSGVPSRFSGSGSGTDFTLTISSLQPEDFATYYCQESYSTPYTFGCGTKVEIK
light: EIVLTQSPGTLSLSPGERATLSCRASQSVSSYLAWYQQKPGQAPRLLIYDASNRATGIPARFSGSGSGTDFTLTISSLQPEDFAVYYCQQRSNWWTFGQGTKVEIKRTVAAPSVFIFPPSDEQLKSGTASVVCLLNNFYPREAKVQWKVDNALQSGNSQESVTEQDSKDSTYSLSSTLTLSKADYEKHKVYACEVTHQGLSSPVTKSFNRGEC
notes: 2+1 format: two anti-CD40 9H3 Fabs on an IgG1 Fc with L234A, L235A, D265S and heterodimerization mutations; Ratio 1:1:2
B1: the binding result with FcγRIIIA (CD16a) and with FcγRIIIB (CD16b) was “no binding” in each case.
